Measured values: patent publication US20140087995A1 (published 2014)
One block for each binder: values may come before it. Numbered stars: 1 amine (or outer) side, 2 acyl side, 3 side chain; on linkers, the order of the positions; unused ones are H or OH. Bridge positions count the residues as written; N and C are the ends. Side chains are listed from the residue outwards. Ends that are not written are not given here. * marks the point of attachment. C20 diacid = O=C(O)CCCCCCCCCCCCCCCCCCC(=O)*; γGlu = O=C(O)[C@H](CCC(=O)[*:2])N[*:1]

Legend:
[1] = biological target: T1, human calcitonin receptor (human, UniProt P30988 25-474); assay: SPA radioligand competition (125I-calcitonin), membranes of BHK cells with human calcitonin receptor
T1 construct: whole, on cells; also called hCTR; hCT
T1 sequence (looked up): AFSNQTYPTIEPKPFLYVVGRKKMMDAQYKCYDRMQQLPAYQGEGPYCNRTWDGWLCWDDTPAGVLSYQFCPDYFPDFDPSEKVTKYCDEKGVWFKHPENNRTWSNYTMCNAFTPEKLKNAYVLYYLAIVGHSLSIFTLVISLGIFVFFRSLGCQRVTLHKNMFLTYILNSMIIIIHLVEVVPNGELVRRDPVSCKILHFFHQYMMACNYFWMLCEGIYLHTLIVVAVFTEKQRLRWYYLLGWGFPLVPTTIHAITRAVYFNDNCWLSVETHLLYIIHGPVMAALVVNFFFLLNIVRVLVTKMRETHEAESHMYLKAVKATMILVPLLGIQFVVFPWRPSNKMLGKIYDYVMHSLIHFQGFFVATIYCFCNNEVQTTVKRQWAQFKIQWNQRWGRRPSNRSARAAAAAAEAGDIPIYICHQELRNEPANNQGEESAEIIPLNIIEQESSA
Procedure, shortened: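 BHK hCTR membranes 35 ng/μL + SPA beads 0.05 mg/well; buffer 50 mM Hepes pH 7.4, 1 mM CaCl2, 5 mM MgCl₂, 0.1% OA, 0.02% Tween20. 120 min, 25° C., shaking. Scintillation count; IC50 by one-site binding competition.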

[2] = biological target: T1, human calcitonin receptor; assay: ratio of IC50 at human calcitonin receptor to IC50 at human amylin receptor (SPA competition assays)
Procedure, shortened: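 Membranes (35 ng/μL final) + SPA beads, 50 mM Hepes pH 7.4 buffer with 1 mM CaCl2, 5 mM MgCl₂, 0.1% OA, 0.02% Tween20; 120 min, 25° C, shaking; centrifuged, counted; IC₅₀ by one-site binding competition.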

B1: N^ε1-[(4S)-4-carboxy-4-[[(4S)-4-carboxy-4-(19-carboxynonadecanoylamino)butanoyl]amino]butanoyl]-[Arg17,Pro21,Pro27,His34]-h-amylin (peptide)
peptide: K([γGlu-γGlu-C20 diacid])CNTATCATQRLANFLRHSSPNFGAIPSSTNVGHNTY-NH2
modifications: disulfide 2-7; N-terminus assumed
SMILES: CC[C@H](C)[C@H](NC(=O)[C@H](C)NC(=O)CNC(=O)[C@H](Cc1ccccc1)NC(=O)[C@H](CC(N)=O)NC(=O)[C@@H]1CCCN1C(=O)[C@H](CO)NC(=O)[C@H](CO)NC(=O)[C@H](Cc1c[nH]cn1)NC(=O)[C@H](CCCNC(=N)N)NC(=O)[C@H](CC(C)C)NC(=O)[C@H](Cc1ccccc1)NC(=O)[C@H](CC(N)=O)NC(=O)[C@H](C)NC(=O)[C@H](CC(C)C)NC(=O)[C@H](CCCNC(=N)N)NC(=O)[C@H](CCC(N)=O)NC(=O)[C@@H](NC(=O)[C@H](C)NC(=O)[C@@H]1CSSC[C@H](NC(=O)[C@@H](N)CCCCNC(=O)CC[C@H](NC(=O)CC[C@H](NC(=O)CCCCCCCCCCCCCCCCCCC(=O)O)C(=O)O)C(=O)O)C(=O)N[C@@H](CC(N)=O)C(=O)N[C@@H]([C@@H](C)O)C(=O)N[C@@H](C)C(=O)N[C@@H]([C@@H](C)O)C(=O)N1)[C@@H](C)O)C(=O)N1CCC[C@H]1C(=O)N[C@@H](CO)C(=O)N[C@@H](CO)C(=O)N[C@H](C(=O)N[C@@H](CC(N)=O)C(=O)N[C@H](C(=O)NCC(=O)N[C@@H](Cc1c[nH]cn1)C(=O)N[C@@H](CC(N)=O)C(=O)N[C@H](C(=O)N[C@@H](Cc1ccc(O)cc1)C(N)=O)[C@@H](C)O)C(C)C)[C@@H](C)O
notes: also called compound 86
IC50 [1]: 133 nM | Ratio hCT/hAmylin binding [2]: 159

B3: N^ε1-[(4S)-4-carboxy-4-[[(4S)-4-carboxy-4-(19-carboxynonadecanoylamino)butanoyl]amino]butanoyl]-[Glu14,Arg17,Pro21,Pro27,Pro34,Arg35]-h-amylin (peptide)
peptide: K([γGlu-γGlu-C20 diacid])CNTATCATQRLAEFLRHSSPNFGAIPSSTNVGPRTY-NH2
modifications: disulfide 2-7; N-terminus assumed
SMILES: CC[C@H](C)[C@H](NC(=O)[C@H](C)NC(=O)CNC(=O)[C@H](Cc1ccccc1)NC(=O)[C@H](CC(N)=O)NC(=O)[C@@H]1CCCN1C(=O)[C@H](CO)NC(=O)[C@H](CO)NC(=O)[C@H](Cc1c[nH]cn1)NC(=O)[C@H](CCCNC(=N)N)NC(=O)[C@H](CC(C)C)NC(=O)[C@H](Cc1ccccc1)NC(=O)[C@H](CCC(=O)O)NC(=O)[C@H](C)NC(=O)[C@H](CC(C)C)NC(=O)[C@H](CCCNC(=N)N)NC(=O)[C@H](CCC(N)=O)NC(=O)[C@@H](NC(=O)[C@H](C)NC(=O)[C@@H]1CSSC[C@H](NC(=O)[C@@H](N)CCCCNC(=O)CC[C@H](NC(=O)CC[C@H](NC(=O)CCCCCCCCCCCCCCCCCCC(=O)O)C(=O)O)C(=O)O)C(=O)N[C@@H](CC(N)=O)C(=O)N[C@@H]([C@@H](C)O)C(=O)N[C@@H](C)C(=O)N[C@@H]([C@@H](C)O)C(=O)N1)[C@@H](C)O)C(=O)N1CCC[C@H]1C(=O)N[C@@H](CO)C(=O)N[C@@H](CO)C(=O)N[C@H](C(=O)N[C@@H](CC(N)=O)C(=O)N[C@H](C(=O)NCC(=O)N1CCC[C@H]1C(=O)N[C@@H](CCCNC(=N)N)C(=O)N[C@H](C(=O)N[C@@H](Cc1ccc(O)cc1)C(N)=O)[C@@H](C)O)C(C)C)[C@@H](C)O
notes: also called compound 110
IC50 [1]: 17.5 nM | Ratio hCT/hAmylin binding [2]: 53.6

Binder: K([γGlu-γGlu-C20 diacid])CNTATCATQRLAEFLRHSSPNFGAILSSTPVGPETY-NH2 (disulfide 2-7)
IC50 [1]: 1.56 nM | Ratio hCT/hAmylin binding [2]: 22.6

B6: N^ε1-[(4S)-4-carboxy-4-[[(4S)-4-carboxy-4-(19-carboxynonadecanoylamino)butanoyl]amino]butanoyl]-[Ser14,Arg17,Pro21,Pro27,Pro34,Glu35]-h-amylin (peptide)
peptide: K([γGlu-γGlu-C20 diacid])CNTATCATQRLASFLRHSSPNFGAIPSSTNVGPETY-NH2
modifications: disulfide 2-7; N-terminus assumed
SMILES: CC[C@H](C)[C@H](NC(=O)[C@H](C)NC(=O)CNC(=O)[C@H](Cc1ccccc1)NC(=O)[C@H](CC(N)=O)NC(=O)[C@@H]1CCCN1C(=O)[C@H](CO)NC(=O)[C@H](CO)NC(=O)[C@H](Cc1c[nH]cn1)NC(=O)[C@H](CCCNC(=N)N)NC(=O)[C@H](CC(C)C)NC(=O)[C@H](Cc1ccccc1)NC(=O)[C@H](CO)NC(=O)[C@H](C)NC(=O)[C@H](CC(C)C)NC(=O)[C@H](CCCNC(=N)N)NC(=O)[C@H](CCC(N)=O)NC(=O)[C@@H](NC(=O)[C@H](C)NC(=O)[C@@H]1CSSC[C@H](NC(=O)[C@@H](N)CCCCNC(=O)CC[C@H](NC(=O)CC[C@H](NC(=O)CCCCCCCCCCCCCCCCCCC(=O)O)C(=O)O)C(=O)O)C(=O)N[C@@H](CC(N)=O)C(=O)N[C@@H]([C@@H](C)O)C(=O)N[C@@H](C)C(=O)N[C@@H]([C@@H](C)O)C(=O)N1)[C@@H](C)O)C(=O)N1CCC[C@H]1C(=O)N[C@@H](CO)C(=O)N[C@@H](CO)C(=O)N[C@H](C(=O)N[C@@H](CC(N)=O)C(=O)N[C@H](C(=O)NCC(=O)N1CCC[C@H]1C(=O)N[C@@H](CCC(=O)O)C(=O)N[C@H](C(=O)N[C@@H](Cc1ccc(O)cc1)C(N)=O)[C@@H](C)O)C(C)C)[C@@H](C)O
notes: also called compound 120
IC50 [1]: 3.44 nM | Ratio hCT/hAmylin binding [2]: 45.3

Further binders by falling IC50 [1], results first:

IC50 [1]: 50.7 nM | Ratio hCT/hAmylin binding [2]: 118
B2: N^ε1-[(4S)-4-carboxy-4-(19-carboxynonadecanoylamino)butanoyl]-[Arg17,Pro21,Pro27,His34]-h-amylin (peptide)
peptide: K([γGlu-C20 diacid])CNTATCATQRLANFLRHSSPNFGAIPSSTNVGHNTY-NH2
modifications: disulfide 2-7; N-terminus assumed
SMILES: CC[C@H](C)[C@H](NC(=O)[C@H](C)NC(=O)CNC(=O)[C@H](Cc1ccccc1)NC(=O)[C@H](CC(N)=O)NC(=O)[C@@H]1CCCN1C(=O)[C@H](CO)NC(=O)[C@H](CO)NC(=O)[C@H](Cc1c[nH]cn1)NC(=O)[C@H](CCCNC(=N)N)NC(=O)[C@H](CC(C)C)NC(=O)[C@H](Cc1ccccc1)NC(=O)[C@H](CC(N)=O)NC(=O)[C@H](C)NC(=O)[C@H](CC(C)C)NC(=O)[C@H](CCCNC(=N)N)NC(=O)[C@H](CCC(N)=O)NC(=O)[C@@H](NC(=O)[C@H](C)NC(=O)[C@@H]1CSSC[C@H](NC(=O)[C@@H](N)CCCCNC(=O)CC[C@H](NC(=O)CCCCCCCCCCCCCCCCCCC(=O)O)C(=O)O)C(=O)N[C@@H](CC(N)=O)C(=O)N[C@@H]([C@@H](C)O)C(=O)N[C@@H](C)C(=O)N[C@@H]([C@@H](C)O)C(=O)N1)[C@@H](C)O)C(=O)N1CCC[C@H]1C(=O)N[C@@H](CO)C(=O)N[C@@H](CO)C(=O)N[C@H](C(=O)N[C@@H](CC(N)=O)C(=O)N[C@H](C(=O)NCC(=O)N[C@@H](Cc1c[nH]cn1)C(=O)N[C@@H](CC(N)=O)C(=O)N[C@H](C(=O)N[C@@H](Cc1ccc(O)cc1)C(N)=O)[C@@H](C)O)C(C)C)[C@@H](C)O
notes: also called compound 77

IC50 [1]: 26 nM | Ratio hCT/hAmylin binding [2]: 145
B5: N^ε1-[(4S)-4-carboxy-4-[[(4S)-4-carboxy-4-(19-carboxynonadecanoylamino)butanoyl]amino]butanoyl]-[His14,Arg17,Pro21,Pro27]-h-amylin (peptide)
peptide: K([γGlu-γGlu-C20 diacid])CNTATCATQRLAHFLRHSSPNFGAIPSSTNVGSNTY-NH2
modifications: disulfide 2-7; N-terminus assumed
SMILES: CC[C@H](C)[C@H](NC(=O)[C@H](C)NC(=O)CNC(=O)[C@H](Cc1ccccc1)NC(=O)[C@H](CC(N)=O)NC(=O)[C@@H]1CCCN1C(=O)[C@H](CO)NC(=O)[C@H](CO)NC(=O)[C@H](Cc1c[nH]cn1)NC(=O)[C@H](CCCNC(=N)N)NC(=O)[C@H](CC(C)C)NC(=O)[C@H](Cc1ccccc1)NC(=O)[C@H](Cc1c[nH]cn1)NC(=O)[C@H](C)NC(=O)[C@H](CC(C)C)NC(=O)[C@H](CCCNC(=N)N)NC(=O)[C@H](CCC(N)=O)NC(=O)[C@@H](NC(=O)[C@H](C)NC(=O)[C@@H]1CSSC[C@H](NC(=O)[C@@H](N)CCCCNC(=O)CC[C@H](NC(=O)CC[C@H](NC(=O)CCCCCCCCCCCCCCCCCCC(=O)O)C(=O)O)C(=O)O)C(=O)N[C@@H](CC(N)=O)C(=O)N[C@@H]([C@@H](C)O)C(=O)N[C@@H](C)C(=O)N[C@@H]([C@@H](C)O)C(=O)N1)[C@@H](C)O)C(=O)N1CCC[C@H]1C(=O)N[C@@H](CO)C(=O)N[C@@H](CO)C(=O)N[C@H](C(=O)N[C@@H](CC(N)=O)C(=O)N[C@H](C(=O)NCC(=O)N[C@@H](CO)C(=O)N[C@@H](CC(N)=O)C(=O)N[C@H](C(=O)N[C@@H](Cc1ccc(O)cc1)C(N)=O)[C@@H](C)O)C(C)C)[C@@H](C)O
notes: also called compound 92

IC50 [1]: 2.13 nM | Ratio hCT/hAmylin binding [2]: 17.6
B4: N^ε1-[(4S)-4-carboxy-4-[[(4S)-4-carboxy-4-(19-carboxynonadecanoylamino)butanoyl]amino]butanoyl]-[Glu14,Arg17,Pro21,Pro27,Pro34,Glu35]-h-amylin (peptide)
peptide: K([γGlu-γGlu-C20 diacid])CNTATCATQRLAEFLRHSSPNFGAIPSSTNVGPETY-NH2
modifications: disulfide 2-7; N-terminus assumed
SMILES: CC[C@H](C)[C@H](NC(=O)[C@H](C)NC(=O)CNC(=O)[C@H](Cc1ccccc1)NC(=O)[C@H](CC(N)=O)NC(=O)[C@@H]1CCCN1C(=O)[C@H](CO)NC(=O)[C@H](CO)NC(=O)[C@H](Cc1c[nH]cn1)NC(=O)[C@H](CCCNC(=N)N)NC(=O)[C@H](CC(C)C)NC(=O)[C@H](Cc1ccccc1)NC(=O)[C@H](CCC(=O)O)NC(=O)[C@H](C)NC(=O)[C@H](CC(C)C)NC(=O)[C@H](CCCNC(=N)N)NC(=O)[C@H](CCC(N)=O)NC(=O)[C@@H](NC(=O)[C@H](C)NC(=O)[C@@H]1CSSC[C@H](NC(=O)[C@@H](N)CCCCNC(=O)CC[C@H](NC(=O)CC[C@H](NC(=O)CCCCCCCCCCCCCCCCCCC(=O)O)C(=O)O)C(=O)O)C(=O)N[C@@H](CC(N)=O)C(=O)N[C@@H]([C@@H](C)O)C(=O)N[C@@H](C)C(=O)N[C@@H]([C@@H](C)O)C(=O)N1)[C@@H](C)O)C(=O)N1CCC[C@H]1C(=O)N[C@@H](CO)C(=O)N[C@@H](CO)C(=O)N[C@H](C(=O)N[C@@H](CC(N)=O)C(=O)N[C@H](C(=O)NCC(=O)N1CCC[C@H]1C(=O)N[C@@H](CCC(=O)O)C(=O)N[C@H](C(=O)N[C@@H](Cc1ccc(O)cc1)C(N)=O)[C@@H](C)O)C(C)C)[C@@H](C)O
